Measured values published in patent publication US20250002543A1.

B1: FpL_C3 G21R (designed binder)
chain: ETPEEPKEEVTIKVNLIFADRKIQTAEFKGTFEEATAKAYAYANLLAKENGEYTADLEDGGNTINIKFAGHHHHHH
B2: FpL_C3 G51V (designed binder)
chain: ETPEEPKEEVTIKVNLIFADGKIQTAEFKGTFEEATAKAYAYANLLAKENVEYTADLEDGGNTINIKFAGHHHHHH
B3: FpL_C3 N62H (designed binder)
chain: ETPEEPKEEVTIKVNLIFADGKIQTAEFKGTFEEATAKAYAYANLLAKENGEYTADLEDGGHTINIKFAGHHHHHH
B4: FpL_C3 N62R (designed binder)
chain: ETPEEPKEEVTIKVNLIFADGKIQTAEFKGTFEEATAKAYAYANLLAKENGEYTADLEDGGRTINIKFAGHHHHHH
B5: FpL_C3 N62Y (designed binder)
chain: ETPEEPKEEVTIKVNLIFADGKIQTAEFKGTFEEATAKAYAYANLLAKENGEYTADLEDGGYTINIKFAGHHHHHH
B6: FpL_C3 N62W (designed binder)
chain: ETPEEPKEEVTIKVNLIFADGKIQTAEFKGTFEEATAKAYAYANLLAKENGEYTADLEDGGWTINIKFAGHHHHHH
B7: FpL_C4KR amino acid substitution mutant Lys(Arg)7Gln (designed binder)
chain: ETPEEPQEEVTIRVNLIFADGRTQTAEFRGTFEEATAEAYRYADLLARVNGEYTADLEDGGYTINIRFAGHHHHHH
B8: FpL_C4KR amino acid substitution mutant Lys(Arg)13Val (designed binder)
chain: ETPEEPREEVTIVVNLIFADGRTQTAEFRGTFEEATAEAYRYADLLARVNGEYTADLEDGGYTINIRFAGHHHHHH
B9: FpL_C4KR amino acid substitution mutant Lys(Arg)22Thr (designed binder)
chain: ETPEEPREEVTIRVNLIFADGTTQTAEFRGTFEEATAEAYRYADLLARVNGEYTADLEDGGYTINIRFAGHHHHHH
B10: FpL_C4KR amino acid substitution mutant Lys(Arg)29Pro (designed binder)
chain: ETPEEPREEVTIRVNLIFADGRTQTAEFPGTFEEATAEAYRYADLLARVNGEYTADLEDGGYTINIRFAGHHHHHH
B11: FpL_C4KR amino acid substitution mutant Lys(Arg)29Val (designed binder)
chain: ETPEEPREEVTIRVNLIFADGRTQTAEFVGTFEEATAEAYRYADLLARVNGEYTADLEDGGYTINIRFAGHHHHHH
B12: FpL_C4KR amino acid substitution mutant Lys(Arg)29Ile (designed binder)
chain: ETPEEPREEVTIRVNLIFADGRTQTAEFIGTFEEATAEAYRYADLLARVNGEYTADLEDGGYTINIRFAGHHHHHH
B13: FpL_C3KX 7e (designed binder)
chain: ETPGESAEEVTIRVNLIFADGRIQTAEFIGTFEEATAEAYAYANLLARDYGEFTADLEDGGYTINIRFVGHHHHHH
B14: FpL_C3KX 9a (designed binder)
chain: ETPGESAEEVTIRVNLIFADGRRQTAEFIGTFEEATAEAYAYARLLARDYGEFTADLEDGGYTINIRFVGHHHHHH
B15: FpL_C3KX 9b (designed binder)
chain: ETPGESAEEVTIRVNLIFADGRRQTAEFIGTFEEATAEAYAYAHLLARDYGEFTADLEDGGYTINIRFVGHHHHHH
B16: FpL_C3KX 9c (designed binder)
chain: ETPGESAEEVTIRVNLIFADGRRQTAEFIGTFEEATAEAYAYANLLARDYGEFTADLEDGGYTLNIRFVGHHHHHH
B17: FpL_C3KX 9d (designed binder)
chain: ETPGESAEEVTIRVNLIFADGRIQTAEFIGTFEEATAEAYAYARLLARDYGEFTADLEDGGYTLNIRFVGHHHHHH
B18: FpL_C3KX 9e (designed binder)
chain: ETPGESAEEVTIRVNLIFADGRIQTAEFIGTFEEATAEAYAYAHLLARDYGEFTADLEDGGYTLNIRFVGHHHHHH
B19: FpL_C3KX 10a (designed binder)
chain: ETPGESAEEVTIRVNLIFADGRRQTAEFIGTFEEATAEAYAYARLLAHDYGEFTADLEDGGYTLNIRFVGHHHHHH
B20: FpL_C3KX 10b (designed binder)
chain: ETPGESAEEVTIRVNLIFADGRRQTAEFIGTFEEATAEAYAYAHLLAHDYGEFTADLEDGGYTLNIRFVGHHHHHH
B21: FpL_C3KX 7e amino acid substitution mutant Asn15Val (designed binder)
chain: ETPGESAEEVTIRVVLIFADGRIQTAEFIGTFEEATAEAYAYANLLARDYGEFTADLEDGGYTINIRFVGHHHHHH
B22: FpL_C3KX 7e amino acid substitution mutant Glu34Asp (designed binder)
chain: ETPGESAEEVTIRVNLIFADGRIQTAEFIGTFEDATAEAYAYANLLARDYGEFTADLEDGGYTINIRFVGHHHHHH
B23: FpL_C3KX 7e amino acid substitution mutant Glu34Phe (designed binder)
chain: ETPGESAEEVTIRVNLIFADGRIQTAEFIGTFEFATAEAYAYANLLARDYGEFTADLEDGGYTINIRFVGHHHHHH
B24: FpL_C3KX 7e amino acid substitution mutant Glu34Leu (designed binder)
chain: ETPGESAEEVTIRVNLIFADGRIQTAEFIGTFELATAEAYAYANLLARDYGEFTADLEDGGYTINIRFVGHHHHHH
B25: FpL_C3KX 7e amino acid substitution mutant Glu34Val (designed binder)
chain: ETPGESAEEVTIRVNLIFADGRIQTAEFIGTFEVATAEAYAYANLLARDYGEFTADLEDGGYTINIRFVGHHHHHH
B26: FpL_C3KX 7d (designed binder)
chain: ETPGESAEEVTIRVNLIFADGRIQTAEFIGTFEEATAEAYAYANLLARDYGDFTADLEDGGYTINIRFAGHHHHHH
B27: FpL_C3KX 7d_P6A (designed binder)
chain: ETPGEAAEEVTIRVNLIFADGRIQTAEFIGTFEEATAEAYAYANLLARDYGDFTADLEDGGYTINIRFAGHHHHHH
B28: FpL_C3KX 7d_E8G (designed binder)
chain: ETPGESAGEVTIRVNLIFADGRIQTAEFIGTFEEATAEAYAYANLLARDYGDFTADLEDGGYTINIRFAGHHHHHH
B29: FpL_C3KX 7d_E8R (designed binder)
chain: ETPGESAREVTIRVNLIFADGRIQTAEFIGTFEEATAEAYAYANLLARDYGDFTADLEDGGYTINIRFAGHHHHHH
B30: FpL_C3KX 7d_G21R (designed binder)
chain: ETPGESAEEVTIRVNLIFADRRIQTAEFIGTFEEATAEAYAYANLLARDYGDFTADLEDGGYTINIRFAGHHHHHH
B31: FpL_C3KX 7d_I23F (designed binder)
chain: ETPGESAEEVTIRVNLIFADGRFQTAEFIGTFEEATAEAYAYANLLARDYGDFTADLEDGGYTINIRFAGHHHHHH
B32: FpL_C3KX 7d_I23L (designed binder)
chain: ETPGESAEEVTIRVNLIFADGRLQTAEFIGTFEEATAEAYAYANLLARDYGDFTADLEDGGYTINIRFAGHHHHHH
B33: FpL_C3KX 7d_E33V (designed binder)
chain: ETPGESAEEVTIRVNLIFADGRIQTAEFIGTFVEATAEAYAYANLLARDYGDFTADLEDGGYTINIRFAGHHHHHH
B34: FpL_C3KX 7d_K38H (designed binder)
chain: ETPGESAEEVTIRVNLIFADGRIQTAEFIGTFEEATAHAYAYANLLARDYGDFTADLEDGGYTINIRFAGHHHHHH
B35: FpL_C3KX 7d_K38L (designed binder)
chain: ETPGESAEEVTIRVNLIFADGRIQTAEFIGTFEEATALAYAYANLLARDYGDFTADLEDGGYTINIRFAGHHHHHH
B36: FpL_C3KX 7d_N44H (designed binder)
chain: ETPGESAEEVTIRVNLIFADGRIQTAEFIGTFEEATAEAYAYAHLLARDYGDFTADLEDGGYTINIRFAGHHHHHH
B37: FpL_C3KX 7d_N44R (designed binder)
chain: ETPGESAEEVTIRVNLIFADGRIQTAEFIGTFEEATAEAYAYARLLARDYGDFTADLEDGGYTINIRFAGHHHHHH
B38: FpL_C3KX 7d_K48H (designed binder)
chain: ETPGESAEEVTIRVNLIFADGRIQTAEFIGTFEEATAEAYAYANLLAHDYGDFTADLEDGGYTINIRFAGHHHHHH
B39: FpL_C3KX 7d_N50M (designed binder)
chain: ETPGESAEEVTIRVNLIFADGRIQTAEFIGTFEEATAEAYAYANLLARDMGDFTADLEDGGYTINIRFAGHHHHHH
B40: FpL_C3KX 7d_E52Y (designed binder)
chain: ETPGESAEEVTIRVNLIFADGRIQTAEFIGTFEEATAEAYAYANLLARDYGYFTADLEDGGYTINIRFAGHHHHHH
B41: FpL_C3KX 7d_Y53S (designed binder)
chain: ETPGESAEEVTIRVNLIFADGRIQTAEFIGTFEEATAEAYAYANLLARDYGDSTADLEDGGYTINIRFAGHHHHHH

The binders below were run against immunoglobulin immobilized on IgG Sepharose 6 Fast Flow (manufactured by Cytiva) (assay: IgG Sepharose 6 Fast Flow column; linear gradient 0.1 M citrate pH 6.5 to pH 2.2; pH at the peak of the eluted binding protein).
In the case of B1, the Elution pH is reported as 3.4 pH.
With B2 the Elution pH was 3.4 pH.
In the case of B3, the Elution pH is reported as 3 pH.
Work on B4 yielded an Elution pH of 3 pH.
Work on B5 yielded an Elution pH of 3 pH.
Work on B6 yielded an Elution pH of 3 pH.
Work on B7 yielded an Elution pH of 3 pH.
For B8, the Elution pH was 3.1 pH.
In the case of B9, the Elution pH is reported as 3.2 pH.
For B10, the Elution pH was 3.2 pH.
Work on B11 yielded an Elution pH of 3.1 pH.
In the case of B12, the Elution pH is reported as 3.1 pH.

The binders below were run against human antibody (gamma globulin preparation, manufactured by The Chemo-Sero-Therapeutic Research Institute) (human) (assay: ELISA; human gamma globulin immobilised; acid treatment 50 mM buffer pH 3.2, 25 C, 5 min; elution rate = 1 - remaining binding activity).
With B13 the Elution rate [%] was 46%.
B14 gave an Elution rate [%] of 70%.
Work on B15 yielded an Elution rate [%] of 68%.
For B16, the Elution rate [%] was 69%.
In the case of B17, the Elution rate [%] is reported as 63%.
B18 gave an Elution rate [%] of 68%.
B19 showed an Elution rate [%] of 75%.
For B20, the Elution rate [%] was 67%.

Molecular target: human antibody (gamma globulin preparation, manufactured by The Chemo-Sero-Therapeutic Research Institute) (human)
Assay: as above
Remark: another data set of the same source
In the case of B13, the Elution rate [%] is reported as 26%.
In the case of B21, the Elution rate [%] is reported as 29%.
B22 gave an Elution rate [%] of 46%.
With B23 the Elution rate [%] was 64%.
For B24, the Elution rate [%] was 51%.
Binder B25 has an Elution rate [%] of 29%.

The binders below were run against human antibody (gamma globulin preparation, manufactured by The Chemo-Sero-Therapeutic Research Institute) (human) (assay: ELISA; human gamma globulin immobilised; acid treatment 50 mM buffer pH 3.0, 25 C, 15 min; elution rate = 1 - remaining binding activity).
In the case of B26, the Elution rate [%] is reported as 78%.
B27 was tested, and the Elution rate [%] was 82%.
In the case of B28, the Elution rate [%] is reported as 80%.
In the case of B29, the Elution rate [%] is reported as 82%.
With B30 the Elution rate [%] was 82%.
In the case of B31, the Elution rate [%] is reported as 81%.
Work on B32 yielded an Elution rate [%] of 82%.
With B33 the Elution rate [%] was 86%.
B34 showed an Elution rate [%] of 86%.
B35 showed an Elution rate [%] of 88%.
Work on B36 yielded an Elution rate [%] of 82%.
B37 showed an Elution rate [%] of 82%.
For B38, the Elution rate [%] was 85%.
For B39, the Elution rate [%] was 86%.
In the case of B40, the Elution rate [%] is reported as 85%.
With B41 the Elution rate [%] was 83%.
